Results taken from the supplement of paper PMC12042874.
± gives the uncertainty stated by the source.

assay: amyloid nucleation score (Sup35N fusion, yeast selection) (log enrichment); library NNK1; higher = more nucleation; inactive = no reads after selection
Method in brief: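 The nucleation score is a DiMSum log enrichment of output over input reads, centred on the mode score of non-aggregating sequences. Sequences under 100 input reads were excluded, and reads came from Illumina sequencing of plasmid inserts. Psi-negative yeast expressing Sup35N fused to peptides of 20 random codons were induced with 100 μM copper sulfate for 24 hours and grown 7 days at 30°C on medium lacking adenine and uracil. Random libraries had three technical output replicates.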

| Substance | amyloid nucleation score |
| --- | --- |
| RCHTLFIVSLYRRVRNHMSC | 0.558 ± 0.79 |
| RCLSQNYCLSLASRLEHMCI | 0.572 ± 1.1 |
| RCRPKVWACS | -0.102 ± 1 |
| RDAVFGPAGVLQI | -0.122 ± 1.6 |
| RDCFIRGKWCTCWHWCEGGE | 1.34 ± 0.27 |
| RDFRYCFRCVIINMHRDHFQ | 3.99 ± 0.06 |
| RDFYCFWLG | 4.05 ± 0.08 |
| RDIILGVLDRCSHCKNRALI | 0.223 ± 0.62 |
| RDRCT | 0.49 ± 0.36 |
| RDSLESTVGVKMGNASGVCR | -0.818 ± 1.6 |
| REDPIALGSRWTRPISKTLG | 0.734 ± 0.97 |
| REEKV | 0.068 ± 0.42 |
| RESDFYTLDLRQVMISAEPL | 0.158 ± 0.36 |
| RFANMLNVFENV | -0.179 ± 0.26 |
| RFAVCTNFANIFRLQEDQIR | 0.481 ± 0.33 |
| RFETRTL | 0.93 ± 0.31 |
| RFFGKYSTEGLNL | 0.992 ± 0.76 |
| RFGTY | -0.067 ± 0.94 |
| RFLSSALRARRYSRPVPLVM | 1.13 ± 0.76 |
| RFLVFPRFCCTRNKPRSETL | 0.616 ± 1.2 |
| RFNNDMTSLLSGRIAMEYSY | -0.344 ± 0.62 |
| RFQTGPTLCSPQTEWPVLLN | 0.987 ± 0.56 |
| RFRVCCNRSKRGGYGPNVER | -0.363 ± 0.67 |
| RFRVVNSCSTKPLLNEKLFG | inactive |
| RFSMFRQFRSDLGCFPIMVP | 0.254 ± 0.72 |

| Substance | amyloid nucleation score |
| --- | --- |
| RFYIMYLSGCAKTSFCGFVS | 6.4 ± 0.079 |
| RGCMAQDSNLYKHVSARTGD | -0.179 ± 1.6 |
| RGDLCGSRIFLWFALPVN | -0.726 ± 0.62 |
| RGGTMGYILDNKCQNFVGTW | inactive |
| RGHAFLFVLYTFQLKAYAS | -0.033 ± 0.3 |
| RGILLSPSLLVYRLTT | -0.096 ± 1.2 |
| RGINSFLMSFALCWAHWRGV | -0.072 ± 0.37 |
| RGLSNA | 0.664 ± 0.48 |
| RGNANIVEDSLFVVIGGRKV | 4.25 ± 0.074 |
| RGSKRTVKLNSGVRVKSYDW | 0.373 ± 1.4 |
| RGVARWRCGNKICNA | 0.078 ± 0.47 |
| RGVHVHRFVLLAMMKFQFGS | inactive |
| RGVLFVAINW | 2.47 ± 0.31 |
| RGYLAWLSGDQA | 1.68 ± 0.52 |
| RGYQTSGLT | -0.756 ± 2.4 |
| RHFLFLLWARPTTCSIFMVG | -0.454 ± 0.77 |
| RHLMLVKYVFGSRELGL | 0.169 ± 0.25 |
| RHLRVTFNSLSWRKMKAGVV | -0.314 ± 0.86 |
| RHTGPIMLSWDAKGRGK | 0.622 ± 0.44 |
| RHYSARQWQIWGFCDLPHSR | 0.086 ± 0.66 |
| RICKGIAGKSENCNTLYNSS | inactive |
| RIIGHLKFIMIRNNVSLCDM | -0.146 ± 0.5 |
| RIKHERLIVFVMNLDINQ | 4.3 ± 0.096 |
| RILSDDDVARQNGNDDNLYP | 3.22 ± 0.092 |
| RINLVSVYDRSNDKVSIPS | 0.454 ± 0.55 |

| Substance | amyloid nucleation score |
| --- | --- |
| RIRTIPFAPRNESPRCIGKF | -1.5 ± 0.86 |
| RIVISCRFEYGLGVGSSGVP | 0.156 ± 1.6 |
| RIVRRFAGLISSI | inactive |
| RKASWRWMSSMSNVGWTCPN | 4.67 ± 0.12 |
| RKESDNDFSTCVTWQNRHPD | 0.529 ± 0.74 |
| RKGSMWFCRCLVRMRHRALP | -0.295 ± 0.76 |
| RKLDASHYMPVSDLEFCCMC | 6.752 ± 0.048 |
| RKLFAY | inactive |
| RKRRVSSLPEMGHSGSEYIG | 0.412 ± 0.67 |
| RKWRVCDKND | -0.491 ± 0.86 |
| RLARWPEPLIRCFAS | 0.594 ± 0.55 |
| RLAVLEELMVRICIVIRNFW | -0.328 ± 0.69 |
| RLAWPRKSSSCN | 0.774 ± 0.45 |
| RLHAVTSLCR | 5.42 ± 0.1 |
| RLIIME | inactive |
| RLLASGFLSTRFR | 0.143 ± 0.86 |
| RLLRFGENFDCWKYLNVALE | 0.004 ± 0.42 |
| RLTCFRGLGNIYIELINMVN | -0.376 ± 0.23 |
| RLTVSGVTLGSVTHAFCGAP | 0.267 ± 0.67 |
| RLTYSSCSGNLWYFRFKSVE | 0.415 ± 0.67 |
| RLVEQFRGMLLWY | -0.673 ± 0.64 |
| RLVIRSGTNAGMVGRSWGGC | -0.151 ± 0.3 |
| RLVSMEVCCTARLPCPYLLK | 2.09 ± 0.25 |
| RLYPL | 0.908 ± 0.34 |
| RLYPQYLNFKVCKFGSLDGG | -0.836 ± 0.31 |

| Substance | amyloid nucleation score |
| --- | --- |
| RLYWSCCDRVDTFLCVF | 4.43 ± 0.099 |
| RMAHVKHFL | 4.52 ± 0.082 |
| RMAWMEGRPGDRMSRYGTSC | inactive |
| RMDSGIGDRSTGGDRTNGMW | -0.546 ± 0.53 |
| RMERGKNLQMWEGQEVGAEN | -1.19 ± 0.77 |
| RMFEVARSSKRSLFHSILET | 0.109 ± 0.26 |
| RMFNQAI | -0.394 ± 0.74 |
| RMGVA | 0.644 ± 0.92 |
| RMIKNYSIS | 0.89 ± 0.55 |
| RMRRLCVSEGRDLSGECCYM | 0.544 ± 0.3 |
| RMSSIKYVMWGHFAIVSTKV | 1.99 ± 0.43 |
| RMVLPVSNLFCAFPGTGGGS | -0.577 ± 0.32 |
| RNCNWDYEVNIKWRVRVEFL | inactive |
| RNGCKFTKLFETVRFKEEGF | -1.03 ± 0.48 |
| RNLLNFFKISDTSTALDLLY | -0.728 ± 0.52 |
| RNPTFFAMCSMCWLSTT | 0.852 ± 0.97 |
| RNSMQILASLNNMDQRPLWR | 1.51 ± 0.51 |
| RNWREVSYMIQVGW | -0.186 ± 0.29 |
| RPCNEGFWLHNHGRSNSSSS | -0.462 ± 0.52 |
| RPKSEISSNFLVDMGFYREM | 0.808 ± 0.88 |
| RPSTLCFTIIRVYKLSRSPT | 2.65 ± 0.074 |
| RQEVKAMGRFTATSLGTHSR | 0.399 ± 0.47 |
| RQLKVARTGLWLGFTFCIQE | 0.24 ± 0.89 |
| RQLTSVCYKSVDGE | 0.516 ± 0.93 |
| RQVPGIKCKSFTLYFADITL | 3.85 ± 0.1 |

| Substance | amyloid nucleation score |
| --- | --- |
| RRCCNVERGSAKVALTV | -0.153 ± 1.3 |
| RRDDVCELLVIP | 0.351 ± 0.51 |
| RRIFRYSMNNLNVFVYNRFP | -0.277 ± 0.51 |
| RRLLISPMTYVSDLASIQGC | 0.175 ± 0.26 |
| RRPIGMACGDGRVYFWDHTA | -0.036 ± 0.47 |
| RRRCYVVSCCLVALACLACF | 0.412 ± 0.8 |
| RRREKHAMDPELRARGQQ | -0.106 ± 0.73 |
| RRSESGKCFDLLSSSLSVIN | -0.786 ± 0.73 |
| RRSSILVNTGYPDLGYVMGD | -1.18 ± 1.3 |
| RRTLSSGVSLYCYPKLGVAR | -0.24 ± 0.53 |
| RSDDKVSRSVGDHCTVGVLR | 6.441 ± 0.061 |
| RSEVEFNTPHLLKCVPDMSF | 0.587 ± 0.42 |
| RSFVNARSSYDVGFFGWNGC | 2.29 ± 0.14 |
| RSFVSEGYFGCWDRDTDYTD | -0.894 ± 1.2 |
| RSLLHCYHNKWMSVRTAFSP | 0.642 ± 0.66 |
| RSMGKIMIRENQRSLVMLSH | 0.522 ± 0.57 |
| RSMWICLWACYNLMVIRWPG | -0.446 ± 0.54 |
| RSNPMTVMVSCLDEVVS | -0.536 ± 0.49 |
| RSPHVAGYNMKAGSDRSNIT | 0.052 ± 0.26 |
| RSQNLGGVFGET | -0.066 ± 0.41 |
| RSQRGRPWEGGLSTSLGVRR | -0.736 ± 1.2 |
| RSQVSSFTYSPSRATPKRRL | 0.508 ± 0.5 |
| RSRLLSFGVNGGWYIKMLIS | -0.028 ± 0.61 |
| RSRNSPTR | -0.027 ± 0.37 |
| RSSCKTTLEIIGVLRMRVYA | 0.769 ± 0.45 |
